From patent publication US20160368993A1 (University of California, published 2016) come the findings set out here.

The target in the experiment is T1, αvβ6 integrin (R&D Systems), immobilized (UniProt P06756 31-992; P18564 22-707).
T1 construct: Bought protein captured on the plate by the anti-αv antibody P2W7; also called immobilized αvβ6 integrin
The experiment in a line: competitive binding ELISA against biotinylated fibronectin on immobilized αvβ6 integrin. As for the experimental part:
Separate competitive binding ELISAs were used to determine the binding affinity of the anti-αᵥβ₆ diabody and Cys-diabody relative to biotinylated fibronectin, a known natural ligand of the αᵥβ₆ integrin. Biotinylation of fibronectin was performed according to the manufacturer's instructions (Amersham Biosciences). The P2W7 antibody (anti-αᵥ, 5 μg/mL, Abcam) was plated into wells (50 μL/well) of a 96-well plate (Maxisorp®, Nunc). The plate was incubated at 37° C. for 1 h then washed with PBS (3×). After washing, the wells were blocked with blocking buffer (PBS, 5% bovine serum albumin (BSA), 1% Tween 20) and the plate was incubated at room temperature for 3 hrs, followed by washing with PBS (3×). The αᵥβ₆ integrin (3 μg/mL, R&D Systems) in conjugate buffer (20 mM Tris, 1 mM MnCl2, 150 mM NaCl, 0.1% Tween, 1% BSA) was added to the wells (50 μL/well). The plate was incubated at room temperature for 1 h and washed with wash buffer (20 mM Tris, 1 mM MnCl2, 150 mM NaCl, 0.1% Tween, 3×). […] Extravidin HRP conjugate was detected using 3,3′,5,5′-tetramethylbenzidine (TMB) substrate (50 μL/well) for 10-15 mins at room temperature. The reaction was terminated by the addition of 1N sulfuric acid (50 μL/well) and the absorbance of each well was measured in a Multiscan Ascent plate reader (Thermo) at 450 nm. […]
In general terms: ELISA stands for enzyme-linked immunosorbent assay.

T1 sequence (P06756 31-992, chain 1 of 2): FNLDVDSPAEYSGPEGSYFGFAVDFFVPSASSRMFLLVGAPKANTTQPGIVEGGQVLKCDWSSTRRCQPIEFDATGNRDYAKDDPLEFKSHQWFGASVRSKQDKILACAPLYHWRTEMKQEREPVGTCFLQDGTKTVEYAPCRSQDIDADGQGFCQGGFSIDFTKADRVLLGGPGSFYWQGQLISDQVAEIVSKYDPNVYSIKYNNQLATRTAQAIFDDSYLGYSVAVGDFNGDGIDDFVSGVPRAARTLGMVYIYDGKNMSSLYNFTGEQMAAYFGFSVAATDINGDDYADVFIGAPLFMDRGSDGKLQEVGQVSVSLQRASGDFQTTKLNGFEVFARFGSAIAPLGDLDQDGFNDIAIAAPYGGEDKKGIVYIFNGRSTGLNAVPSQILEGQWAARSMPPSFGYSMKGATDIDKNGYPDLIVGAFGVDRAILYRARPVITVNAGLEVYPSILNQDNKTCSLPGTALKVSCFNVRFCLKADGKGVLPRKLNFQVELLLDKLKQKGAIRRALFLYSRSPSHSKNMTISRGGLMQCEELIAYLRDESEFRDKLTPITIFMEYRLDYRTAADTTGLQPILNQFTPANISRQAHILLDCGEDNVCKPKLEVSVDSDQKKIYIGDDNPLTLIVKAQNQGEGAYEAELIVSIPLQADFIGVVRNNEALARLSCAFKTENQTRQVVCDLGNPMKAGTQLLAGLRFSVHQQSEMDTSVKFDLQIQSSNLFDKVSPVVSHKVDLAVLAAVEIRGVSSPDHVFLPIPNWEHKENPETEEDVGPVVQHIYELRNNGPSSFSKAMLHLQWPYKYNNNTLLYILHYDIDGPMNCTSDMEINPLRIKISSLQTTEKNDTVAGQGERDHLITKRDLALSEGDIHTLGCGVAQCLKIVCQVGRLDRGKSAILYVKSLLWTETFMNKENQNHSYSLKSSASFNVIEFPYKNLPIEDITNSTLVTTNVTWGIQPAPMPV
T1 sequence (P18564 22-707, chain 2 of 2): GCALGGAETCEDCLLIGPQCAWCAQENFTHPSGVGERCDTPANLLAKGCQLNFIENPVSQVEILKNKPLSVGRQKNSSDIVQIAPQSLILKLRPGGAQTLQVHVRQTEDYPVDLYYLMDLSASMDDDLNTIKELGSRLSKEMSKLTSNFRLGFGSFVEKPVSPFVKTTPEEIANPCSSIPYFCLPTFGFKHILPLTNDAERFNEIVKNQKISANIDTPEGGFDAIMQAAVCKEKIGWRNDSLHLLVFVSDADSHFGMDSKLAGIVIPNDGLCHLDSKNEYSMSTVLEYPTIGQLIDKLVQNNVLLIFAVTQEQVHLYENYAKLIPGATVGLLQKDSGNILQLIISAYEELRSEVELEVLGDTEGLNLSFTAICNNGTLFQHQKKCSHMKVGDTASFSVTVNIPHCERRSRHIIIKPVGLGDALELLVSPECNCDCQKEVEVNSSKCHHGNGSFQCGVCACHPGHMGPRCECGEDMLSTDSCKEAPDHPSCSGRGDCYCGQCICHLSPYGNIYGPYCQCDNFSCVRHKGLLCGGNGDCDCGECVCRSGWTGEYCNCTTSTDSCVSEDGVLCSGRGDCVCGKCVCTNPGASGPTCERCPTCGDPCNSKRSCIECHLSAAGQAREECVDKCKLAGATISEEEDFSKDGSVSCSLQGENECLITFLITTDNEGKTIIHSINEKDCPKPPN

B1: anti-αvβ6 diabody (other)
scFv: EVQLVESGGGLVQPGGSLRLSCAASGFTFSRYVMSWVRQAPGKGLEWVASISSGGRMYYPDTVKGRFTISRDNAKNSLYLQMNSLRAEDTAVYYCARGSIYDGYYVFPYWGQGTLVTVSSGGSEIVLTQSPATLSLSPGERATLSCSASSSVSSSYLYWYQQKPGQAPRLLIYSTSNLASGIPARFSGSGSGTDFTLTISSLEPEDFAVYYCHQWSTYPPTFGGGTKVEIKHHHHHH
notes: Non-covalent dimer of two VH-G2S-VL-His6 chains (diabody), secreted from 293-F cells; also called B6DiaR-G2S; parental anti-αvβ6 diabody
As a reminder, the IC50 is the concentration that inhibits the measured activity by half. Higher therefore signals weaker potency in that assay. For B1, the 50% inhibitory concentration (IC50) worked out at 0.8 nM.

B2: anti-αvβ6 Cys-diabody (other)
scFv: EVQLVESGGGLVQPGGSLRLSCAASGFTFSRYVMSWVRQAPGKGLEWVASISSGGRMYYPDTVKGRFTISRDNAKNSLYLQMNSLRAEDTAVYYCARGSIYDGYYVFPYWGQGTLVTVSSGGSEIVLTQSPATLSLSPGERATLSCSASSSVSSSYLYWYQQKPGQAPRLLIYSTSNLASGIPARFSGSGSGTDFTLTISSLEPEDFAVYYCHQWSTYPPTFGGGTKVEIKHHHHHHGGC
modifications: C-terminal engineered cysteines of the two chains form an interchain disulfide
notes: Covalent dimer; also called disulfide-stabilized anti-αvβ6 Cys-diabody; B6DiaR-G2S-Cys
The molecule B2 showed a concentration for half-maximal inhibition (IC50) of 0.6 nM.
